Assay results taken from patent publication US20170355777A1 (UNIVERSITY OF LEICESTER, published 2017).

T1: recombinant MLP (rMLP) C-terminal fusion protein: N-terminal histidine tag fused to residues 279-431 of human … (human)
T1 construct: Expressed in E. coli from pRSETB and purified on a nickel column; ran at 28 kDa; also called rMLP C-terminal protein; recombinant MLP C-terminal protein
T1 chain: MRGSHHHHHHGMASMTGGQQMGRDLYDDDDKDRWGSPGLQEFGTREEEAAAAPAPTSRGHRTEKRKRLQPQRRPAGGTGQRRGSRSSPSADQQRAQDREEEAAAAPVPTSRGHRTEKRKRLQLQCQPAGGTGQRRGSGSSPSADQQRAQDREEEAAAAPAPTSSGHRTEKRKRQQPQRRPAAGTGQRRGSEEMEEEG

B1: anti-MLP monoclonal antibody αMLP Clone C (hybridoma ATCC PTA-121701) (antibody, IgG1, V domains shown)
VH: DVKLQESGGGLVQPGGSMKLSCVASGFTFSNYWMNWVRQSPEKGLEWVAEIRLKSNNYAINYAESVKGRFTISRDDSKSSVYLDMNNLRAEDTGIYYCTSYYGSSLYYLDYWGQGTTLTVSS
VL: QIVLTQSPVIMSASPGEKVTISCSASSSVSNMYWYQQKPGSSPKAWIYRTSNLASGVPARFSGSGSGTSYSLTISSMEAEDAATYYCHQYQSYPRTFGAGTKLEIK
notes: also called 2(C); mAb clone C
B2: anti-MLP monoclonal antibody αMLP Clone B (hybridoma ATCC PTA-121700) (antibody, IgG2a, V domains shown)
VH: EVQLQQSGPELVKPGASVKISCKASGYSFTGFYIHWVKQSHVKSLEWIGRIHPYNGAPTYNQNFKDRARLTVHESSSTAYMEFFGLTSEDSAVYYCARERVYYYGSTYEFDFWGQGTTLTVSS
VL: DVLMTQTPLSLPVSLGDQASISCRSGQSIVHSSGVTYLSWYLQKPGQSPKLLIYKVFYRFSGVPDRFSGSGSGTDFTLKISRVEAEDLGVYYCFQGSHVPPTFGTGTKLELK
notes: also called mAb clone B
B3: anti-MLP monoclonal antibody αMLP Clone 11 (hybridoma ATCC PTA-121699) (antibody, IgG2b, V domains shown)
VH: EVQLQQSGPELVKPGASVKISCKASGYAFTGFYIHWMKQSHVKSLEWIGRIHPYNGATSYNQNFKDRASLTVDESSSTAYMEFYGLTSEDSAVYYCARERVYYYGSTYEFDSWGQGTTLTVSS
VL: DVLMTQTPLSLPVSLGDQASISCRSGQSIVHTSGVTYLSWYLQKPGQSPKLLIYKVFYRFSGVPDRFSGSGSGTDFTLKISRVESEDLGVYYCFQGSHVPPTFGAGTKLELK
notes: also called mAb clone 11

Target: T1, recombinant MLP (rMLP) C-terminal …
Experiment: KD (binding to rMLP); method not described at the table

Point of comparison: B3, Kd 0.2 nM. Against it:
- B1 — not separable, < 1 nM
- B2 — not separable, < 1 nM
